In patent US20150065381A1:
Values joined by “and” are separate entries in the source; they are usually repeats but may differ in a detail not shown here. Equal values may be shown once.

Key:
[1] = target: HIV-1 JRFL envelope (HIV-1); experiment: capture ELISA, plate 2, mAb 7.5 ug/ml
[2] = target: HIV-1 envelope of gp160 clone AG-010.c11 (HIV-1); experiment: capture ELISA, plate 2, mAb 7.5 ug/ml
[3] = target: HIV-1 envelope of gp160 clone AG-010.c14 (HIV-1); experiment: capture ELISA, plate 2, mAb 7.5 ug/ml
[4] = target: HIV-1 envelope of gp160 clone B-Acute-010.c08 (HIV-1); experiment: capture ELISA, plate 2, mAb 7.5 ug/ml
[5] = target: HIV-1 envelope clone G-011.c05 (multiclade gp160 clone panel) (HIV-1); experiment: capture ELISA, plate 2, mAb 7.5 ug/ml
[6] = target: HIV-1 envelope of gp160 clone B-Acute-010.c09 (HIV-1); experiment: capture ELISA, plate 2, mAb 7.5 ug/ml
[7] = target: HIV-1 envelope clone G-011.c02 (multiclade gp160 clone panel) (HIV-1); experiment: capture ELISA, plate 2, mAb 7.5 ug/ml
[8] = target: HIV-1 envelope of gp160 clone B-Acute-009-c08 (HIV-1); experiment: capture ELISA, plate 2, mAb 7.5 ug/ml
[9] = target: HIV-1 16055 envelope (HIV-1); experiment: capture ELISA, plate 2, mAb 7.5 ug/ml
[10] = target: HIV-1 envelope of gp160 clone B-Acute-008.c11 (HIV-1); experiment: capture ELISA, plate 2, mAb 7.5 ug/ml
[11] = target: HIV-1 JRFL envelope (HIV-1); experiment: capture ELISA, plate 1, mAb 2.5 ug/ml
[12] = target: HIV-1 JRCSF envelope (HIV-1) (UniProt P20871); experiment: capture ELISA, plate 1, mAb 2.5 ug/ml
[13] = target: HIV-1 envelope of gp160 clone B-Acute-010.c09 (HIV-1); experiment: capture ELISA, plate 1, mAb 2.5 ug/ml
[14] = target: HIV-1 envelope clone G-011.c02 (multiclade gp160 clone panel) (HIV-1); experiment: capture ELISA, plate 1, mAb 2.5 ug/ml
[15] = target: HIV-1 16055 envelope (HIV-1); experiment: capture ELISA, plate 1, mAb 2.5 ug/ml
[16] = target: HIV-1 JRFL envelope (HIV-1); experiment: capture ELISA, plate 2, mAb 0.8 ug/ml
[17] = target: HIV-1 envelope of gp160 clone AG-010.c11 (HIV-1); experiment: capture ELISA, plate 2, mAb 0.8 ug/ml
[18] = target: HIV-1 JRCSF envelope (HIV-1) (UniProt P20871); experiment: capture ELISA, plate 2, mAb 0.8 ug/ml
[19] = target: HIV-1 envelope of gp160 clone AG-010.c14 (HIV-1); experiment: capture ELISA, plate 2, mAb 0.8 ug/ml
[20] = target: HIV-1 envelope of gp160 clone B-Acute-010.c08 (HIV-1); experiment: capture ELISA, plate 2, mAb 0.8 ug/ml
[21] = target: HIV-1 envelope clone G-011.c05 (multiclade gp160 clone panel) (HIV-1); experiment: capture ELISA, plate 2, mAb 0.8 ug/ml
[22] = target: HIV-1 envelope of gp160 clone B-Acute-010.c09 (HIV-1); experiment: capture ELISA, plate 2, mAb 0.8 ug/ml
[23] = target: HIV-1 envelope clone G-011.c02 (multiclade gp160 clone panel) (HIV-1); experiment: capture ELISA, plate 2, mAb 0.8 ug/ml
[24] = target: HIV-1 envelope of gp160 clone B-Acute-009-c08 (HIV-1); experiment: capture ELISA, plate 2, mAb 0.8 ug/ml
[25] = target: HIV-1 16055 envelope (HIV-1); experiment: capture ELISA, plate 2, mAb 0.8 ug/ml
[26] = target: HIV-1 envelope of gp160 clone B-Chronic-014.c02 (HIV-1); experiment: capture ELISA, plate 2, mAb 0.8 ug/ml
[27] = target: HIV-1 envelope of gp160 clone B-Acute-008.c11 (HIV-1); experiment: capture ELISA, plate 2, mAb 0.8 ug/ml
[28] = target: HIV-1 envelope clone F1-002.c16 (multiclade gp160 clone panel) (HIV-1); experiment: capture ELISA, plate 2, mAb 7.5 ug/ml
[29] = target: HIV-1 envelope clone BF-002.c08 (multiclade gp160 clone panel) (HIV-1); experiment: capture ELISA, plate 2, mAb 7.5 ug/ml
[30] = target: HIV-1 envelope clone F1-002.c11 (multiclade gp160 clone panel) (HIV-1); experiment: capture ELISA, plate 2, mAb 7.5 ug/ml
[31] = target: HIV-1 envelope clone F1-002.c16 (multiclade gp160 clone panel) (HIV-1); experiment: capture ELISA, plate 1, mAb 2.5 ug/ml
[32] = target: HIV-1 envelope clone F1-002.c11 (multiclade gp160 clone panel) (HIV-1); experiment: capture ELISA, plate 1, mAb 2.5 ug/ml
[33] = target: HIV-1 envelope clone BF-002.c05 (multiclade gp160 clone panel) (HIV-1); experiment: capture ELISA, plate 1, mAb 2.5 ug/ml
[34] = target: HIV-1 envelope clone F1-002.c16 (multiclade gp160 clone panel) (HIV-1); experiment: capture ELISA, plate 2, mAb 0.8 ug/ml
[35] = target: HIV-1 envelope clone BF-002.c08 (multiclade gp160 clone panel) (HIV-1); experiment: capture ELISA, plate 2, mAb 0.8 ug/ml
[36] = target: HIV-1 envelope clone F1-002.c11 (multiclade gp160 clone panel) (HIV-1); experiment: capture ELISA, plate 2, mAb 0.8 ug/ml
[37] = target: HIV-1 envelope clone BF-002.c05 (multiclade gp160 clone panel) (HIV-1); experiment: capture ELISA, plate 2, mAb 0.8 ug/ml

| Substance | ELISA OD [2] [OD] | ELISA OD [3] [OD] | ELISA OD [4] [OD] | ELISA OD [5] [OD] | ELISA OD [6] [OD] | ELISA OD [7] [OD] | ELISA OD [8] [OD] | ELISA OD [10] [OD] | ELISA OD [12] | ELISA OD [13] [OD] | ELISA OD [14] [OD] | ELISA OD [17] [OD] | ELISA OD [18] | ELISA OD [19] [OD] | ELISA OD [20] [OD] | ELISA OD [21] [OD] | ELISA OD [22] [OD] | ELISA OD [23] [OD] | ELISA OD [24] [OD] | ELISA OD [26] [OD] | further results |
| --- | --- | --- | --- | --- | --- | --- | --- | --- | --- | --- | --- | --- | --- | --- | --- | --- | --- | --- | --- | --- | --- |
| PG9 (antibody) | 0.65 | 0.852 | 0.33 | 0.235 | 0.151 | 0.099 | 0.114 | 0.204 | 0.356 OD and 0.338 OD | 0.133 | 0.068 | 0.411 | 0.146 OD and 0.147 OD | 0.528 | 0.125 | 0.116 | 0.067 | 0.052 | 0.062 | 0.768 | ELISA OD [1]: 0.07 OD and 0.054 OD; ELISA OD [9]: 0.263 OD and 0.251 OD; ELISA OD [11]: 0.068 OD and 0.077 OD; ELISA OD [15]: 0.364 OD and 0.308 OD; ELISA OD [16]: 0.06 OD and 0.05 OD; ELISA OD [25]: 0.169 OD and 0.18 OD; ELISA OD [27]: 0.11 OD |
| PG16 (antibody) | 0.302 | 0.8 | 0.301 | 0.153 | 0.244 | 0.097 | 0.092 | 0.215 | 0.206 OD and 0.164 OD | 0.124 | 0.065 | 0.173 | 0.135 OD and 0.136 OD | 0.51 | 0.132 | 0.097 | 0.105 | 0.062 | 0.058 | 0.318 | ELISA OD [28]: 0.217 OD; ELISA OD [29]: 0.164 OD; ELISA OD [30]: 0.154 OD; ELISA OD [11]: 0.085 OD and 0.088 OD; ELISA OD [31]: 0.129 OD; ELISA OD [15]: 0.185 OD and 0.131 OD; ELISA OD [32]: 0.142 OD; ELISA OD [33]: 0.639 OD; ELISA OD [34]: 0.302 OD; ELISA OD [35]: 0.103 OD; ELISA OD [36]: 0.12 OD; ELISA OD [37]: 0.586 OD; ELISA OD [27]: 0.146 OD |
| PGT145 (antibody) | 0.146 | 0.094 | 0.276 | 0.138 | 0.11 | 0.112 | 0.15 | 0.148 | 0.071 OD and 0.061 OD | 0.068 | 0.068 | 0.074 | 0.087 OD and 0.063 OD | 0.074 | 0.125 | 0.096 | 0.065 | 0.071 | 0.178 | 0.059 | ELISA OD [1]: 0.093 OD and 0.082 OD; ELISA OD [28]: 0.518 OD; ELISA OD [29]: 0.074 OD; ELISA OD [9]: 0.117 OD and 0.09 OD; ELISA OD [30]: 0.099 OD; ELISA OD [11]: 0.06 OD; ELISA OD [31]: 0.316 OD; ELISA OD [15]: 0.115 OD and 0.06 OD; ELISA OD [32]: 0.089 OD; ELISA OD [33]: 0.22 OD; ELISA OD [16]: 0.062 OD and 0.054 OD; ELISA OD [34]: 0.375 OD; ELISA OD [35]: 0.057 OD; ELISA OD [25]: 0.067 OD and 0.064 OD; ELISA OD [36]: 0.067 OD; ELISA OD [37]: 0.192 OD; ELISA OD [27]: 0.095 OD |
| PGT151 (antibody) | 0.116 | 0.191 | 0.21 | 0.125 | 0.121 | 0.197 | 0.191 | 0.209 | 0.087 OD and 0.063 OD | 0.06 | 0.067 | 0.061 | 0.064 OD and 0.055 OD | 0.131 | 0.135 | 0.079 | 0.087 | 0.081 | 0.082 | 0.2 | ELISA OD [1]: 0.138 OD and 0.149 OD; ELISA OD [28]: 0.138 OD; ELISA OD [29]: 0.102 OD; ELISA OD [9]: 0.119 OD and 0.118 OD; ELISA OD [30]: 0.135 OD; ELISA OD [11]: 0.078 OD and 0.06 OD; ELISA OD [31]: 0.081 OD; ELISA OD [15]: 0.091 OD and 0.061 OD; ELISA OD [32]: 0.063 OD; ELISA OD [33]: 0.148 OD; ELISA OD [16]: 0.077 OD and 0.054 OD; ELISA OD [34]: 0.082 OD; ELISA OD [35]: 0.054 OD; ELISA OD [25]: 0.06 OD; ELISA OD [36]: 0.072 OD; ELISA OD [37]: 0.133 OD; ELISA OD [27]: 0.203 OD |
| PGV04 (antibody) | 0.22 | 1.68 | 3.25 | 0.719 | 3.44 | 1.25 | 0.459 | 0.109 | 1.53 OD and 1.78 OD | 1.73 | 0.601 | 0.103 | 1.03 OD and 1.35 OD | 0.169 | 0.659 | 0.168 | 0.913 | 0.326 | 0.095 | 3.37 | ELISA OD [28]: 0.626 OD; ELISA OD [29]: 3.2 OD; ELISA OD [30]: 0.506 OD; ELISA OD [31]: 0.242 OD; ELISA OD [32]: 0.145 OD; ELISA OD [33]: 4 OD; ELISA OD [34]: 0.139 OD; ELISA OD [35]: 1.37 OD; ELISA OD [36]: 0.084 OD; ELISA OD [37]: 2.07 OD; ELISA OD [27]: 0.094 OD |
